Reference: paper PMC7565984, “A Phosphorylation-Induced Switch in the Nuclear Localization Sequence of the Intrinsically Disordered NUPR1 Hampers Binding to Importin” (Biomolecules, 2020)
[ ]: non-standard residue; d: D form. pT = C[C@@H](OP(=O)(O)O)[C@H](N)C(=O)O

T1: truncated importin α3 without the IBB domain (residues 64-521) (human, UniProt O00629 64-521)
T1 construct: human importin α3 (KPNA4) without the IBB domain, residues 64-521; also called ΔImpα3; ΔImportin
T1 sequence (looked up): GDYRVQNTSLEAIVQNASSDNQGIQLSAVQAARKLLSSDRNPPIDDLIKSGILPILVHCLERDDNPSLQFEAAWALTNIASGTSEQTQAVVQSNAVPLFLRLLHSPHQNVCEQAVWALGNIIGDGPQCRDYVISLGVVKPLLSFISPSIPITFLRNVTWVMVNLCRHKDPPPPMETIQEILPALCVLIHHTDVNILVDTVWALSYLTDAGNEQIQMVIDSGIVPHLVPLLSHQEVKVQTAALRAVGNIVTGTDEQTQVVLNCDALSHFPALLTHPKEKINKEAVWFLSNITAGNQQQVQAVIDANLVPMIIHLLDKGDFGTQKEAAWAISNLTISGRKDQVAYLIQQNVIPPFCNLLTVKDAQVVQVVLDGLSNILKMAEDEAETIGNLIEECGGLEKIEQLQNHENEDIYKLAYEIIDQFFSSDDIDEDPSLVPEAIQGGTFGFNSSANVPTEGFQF

T2: human importin α3 (intact, with the IBB domain) (human, UniProt O00629 1-521)
T2 construct: human importin α3 (KPNA4), intact protein with the IBB domain; codon-optimized synthetic DNA in the vector pHTP1; also called Impα3; KPNA4; source: E. coli BL21 (DE3), purified (as for ΔImpα3)
T2 sequence (looked up): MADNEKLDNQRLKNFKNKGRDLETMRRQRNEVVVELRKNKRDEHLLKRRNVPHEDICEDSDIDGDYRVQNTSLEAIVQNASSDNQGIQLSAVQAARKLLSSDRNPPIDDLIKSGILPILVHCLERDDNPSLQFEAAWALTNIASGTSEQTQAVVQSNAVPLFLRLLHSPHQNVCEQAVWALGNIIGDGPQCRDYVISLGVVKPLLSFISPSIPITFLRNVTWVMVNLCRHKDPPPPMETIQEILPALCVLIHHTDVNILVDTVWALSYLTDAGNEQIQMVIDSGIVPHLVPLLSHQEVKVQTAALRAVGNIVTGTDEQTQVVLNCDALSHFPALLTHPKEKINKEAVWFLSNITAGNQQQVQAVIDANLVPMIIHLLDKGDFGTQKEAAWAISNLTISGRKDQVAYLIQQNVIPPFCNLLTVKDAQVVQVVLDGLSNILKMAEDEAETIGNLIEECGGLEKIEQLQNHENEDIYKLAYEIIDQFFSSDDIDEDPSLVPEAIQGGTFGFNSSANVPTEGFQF

B1: wild-type NLS-NUPR1 peptide (residues 54-74 of NUPR1 with an added N-terminal Tyr) (peptide)
peptide: Ac-YTNRPSPGGHERKLVTKLQNSE-NH2
notes: tyrosine introduced at the N terminus for absorbance measurements; not a residue of NUPR1; The added Tyr stands where NUPR1 has residue 53; also called wt; wt peptide; source: synthetic peptide (NZYtech, purity 95%)
B2: NLS-NUPR1 peptide T68E (phospho-mimetic) (peptide)
peptide: Ac-YTNRPSPGGHERKLVEKLQNSE-NH2
notes: tyrosine introduced at the N terminus for absorbance measurements; not a residue of NUPR1; also called T68E peptide; Thr68Glu; source: synthetic peptide (NZYtech, purity 95%)
B3: NLS-NUPR1 peptide K65AT68EK69A (peptide)
peptide: Ac-YTNRPSPGGHERALVEALQNSE-NH2
notes: tyrosine introduced at the N terminus for absorbance measurements; not a residue of NUPR1; also called K65AT68EK69A peptide; triple mutant; source: synthetic peptide (NZYtech, purity 95%)
B4: NLS-NUPR1 peptide K65A (peptide)
peptide: Ac-YTNRPSPGGHERALVTKLQNSE-NH2
notes: tyrosine introduced at the N terminus for absorbance measurements; not a residue of NUPR1; also called K65A peptide; Lys65Ala; source: synthetic peptide (NZYtech, purity 95%)
B5: NLS-NUPR1 peptide K69A (peptide)
peptide: Ac-YTNRPSPGGHERKLVTALQNSE-NH2
notes: tyrosine introduced at the N terminus for absorbance measurements; not a residue of NUPR1; also called K69A peptide; Lys69Ala; source: synthetic peptide (NZYtech, purity 95%)
B6: NLS-NUPR1 peptide T68EK69A (peptide)
peptide: Ac-YTNRPSPGGHERKLVEALQNSE-NH2
notes: tyrosine introduced at the N terminus for absorbance measurements; not a residue of NUPR1; also called T68EK69A peptide; source: synthetic peptide (NZYtech, purity 95%)
B7: NLS-NUPR1 peptide K65AT68E (peptide)
peptide: Ac-YTNRPSPGGHERALVEKLQNSE-NH2
notes: tyrosine introduced at the N terminus for absorbance measurements; not a residue of NUPR1; also called K65AT68E peptide; source: synthetic peptide (NZYtech, purity 95%)
B8: NLS-NUPR1 peptide phosphorylated at Thr68 (peptide)
peptide: Ac-YTNRPSPGGHERKLV[pT]KLQNSE-NH2
SMILES: CC(=O)N[C@@H](Cc1ccc(O)cc1)C(=O)N[C@H](C(=O)N[C@@H](CC(N)=O)C(=O)N[C@@H](CCCNC(=N)N)C(=O)N1CCC[C@H]1C(=O)N[C@@H](CO)C(=O)N1CCC[C@H]1C(=O)NCC(=O)NCC(=O)N[C@@H](Cc1c[nH]cn1)C(=O)N[C@@H](CCC(=O)O)C(=O)N[C@@H](CCCNC(=N)N)C(=O)N[C@@H](CCCCN)C(=O)N[C@@H](CC(C)C)C(=O)N[C@H](C(=O)N[C@H](C(=O)N[C@@H](CCCCN)C(=O)N[C@@H](CC(C)C)C(=O)N[C@@H](CCC(N)=O)C(=O)N[C@@H](CC(N)=O)C(=O)N[C@@H](CO)C(=O)N[C@@H](CCC(=O)O)C(N)=O)[C@@H](C)OP(=O)(O)O)C(C)C)[C@@H](C)O
notes: tyrosine introduced at the N terminus for absorbance measurements; not a residue of NUPR1; Thr68 is printed as pT (phospho-threonine); also called pT68; pT68 peptide; source: synthetic peptide (NZYtech, purity 95%)

molecular target: T1, truncated importin α3 without the IBB …; assay: ITC; Impα3 or ΔImpα3 (10–20 μM) in the cell, NLS-NUPR1 peptide (150–300 μM) in the syringe; Tris 50 mM, pH 8; 298 K; single ligand binding site (1:1) model, n gives the fraction of binding-competent protein; conditions: both partners purified

Kd [µM]	dH [kcal/mol]	stoichiometry N	Binder
0.95	-3.7	1	B1
12	-17.5		B2
24	-28.5		B3
2.7	-10.2	1.4	B4
7.6	-21.3	1.4	B5
17	-21.2		B6
14	-17.9		B7
29	-28.2		B8

molecular target: T2, human importin α3 (intact, with the IBB …); assay: as above; conditions: both partners purified

Kd [µM]	dH [kcal/mol]	stoichiometry N	Binder
1.7	0.8	0.9	B1
22	-11.1		B2
	-16.3		B3
3.9	-2.8	1.4	B4
11	-10.8	1.3	B5
17	-7.5		B6
21	-7.8		B7
27	-14.8		B8
